Target: T1, CRB1-FLAG p.G1103R (human, UniProt P82279 26-1406, p.G1103R)
T1 construct: Crumbs homolog 1, canonical form, human, cDNA NM_202153 as printed, with a patient missense mutation in the last laminin G domain; Made by site-directed mutagenesis of m1; also called CRB1 p.G1103R; CRB1-FLAG MT; source: HEK293T, transfected, in lysate; not shown: Strep-Strep-FLAG, N-terminal, kept
T1 sequence (looked up): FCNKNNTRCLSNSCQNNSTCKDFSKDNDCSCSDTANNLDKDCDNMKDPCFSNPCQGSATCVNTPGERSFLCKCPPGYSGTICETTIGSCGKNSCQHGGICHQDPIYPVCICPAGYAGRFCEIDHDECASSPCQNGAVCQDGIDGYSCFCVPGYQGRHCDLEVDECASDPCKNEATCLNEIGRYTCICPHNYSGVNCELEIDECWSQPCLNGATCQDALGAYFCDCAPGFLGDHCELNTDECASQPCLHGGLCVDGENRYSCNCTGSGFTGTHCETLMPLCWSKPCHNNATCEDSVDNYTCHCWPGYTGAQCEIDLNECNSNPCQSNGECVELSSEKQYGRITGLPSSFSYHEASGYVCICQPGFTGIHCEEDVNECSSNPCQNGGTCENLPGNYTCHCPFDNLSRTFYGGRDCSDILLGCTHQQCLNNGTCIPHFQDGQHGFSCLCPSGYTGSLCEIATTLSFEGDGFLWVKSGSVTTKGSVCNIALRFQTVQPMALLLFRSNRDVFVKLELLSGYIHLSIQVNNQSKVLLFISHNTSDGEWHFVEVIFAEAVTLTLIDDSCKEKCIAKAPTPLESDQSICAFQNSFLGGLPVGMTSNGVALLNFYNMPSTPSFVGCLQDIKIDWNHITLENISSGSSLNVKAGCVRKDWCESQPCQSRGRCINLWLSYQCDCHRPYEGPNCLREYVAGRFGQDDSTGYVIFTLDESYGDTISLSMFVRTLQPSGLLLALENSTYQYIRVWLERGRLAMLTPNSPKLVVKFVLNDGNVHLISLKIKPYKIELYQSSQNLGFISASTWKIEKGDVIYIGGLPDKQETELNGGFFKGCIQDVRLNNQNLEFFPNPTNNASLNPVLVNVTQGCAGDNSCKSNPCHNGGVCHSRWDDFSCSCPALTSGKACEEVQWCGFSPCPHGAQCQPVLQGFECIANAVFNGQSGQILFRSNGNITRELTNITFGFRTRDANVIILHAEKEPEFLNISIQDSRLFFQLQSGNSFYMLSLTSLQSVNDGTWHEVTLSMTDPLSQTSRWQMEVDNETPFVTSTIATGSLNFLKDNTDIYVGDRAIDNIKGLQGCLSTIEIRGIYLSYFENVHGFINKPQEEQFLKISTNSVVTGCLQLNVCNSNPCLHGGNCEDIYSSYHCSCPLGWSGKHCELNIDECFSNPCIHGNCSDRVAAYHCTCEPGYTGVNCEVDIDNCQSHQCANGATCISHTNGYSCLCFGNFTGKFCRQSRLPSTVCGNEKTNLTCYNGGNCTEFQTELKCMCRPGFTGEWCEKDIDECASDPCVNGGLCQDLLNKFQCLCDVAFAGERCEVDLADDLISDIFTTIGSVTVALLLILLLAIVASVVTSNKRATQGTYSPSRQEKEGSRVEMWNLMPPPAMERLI
Assay: co-IP; HEK293T cells co-transfected pairwise with a FLAG and an HA construct, 48 h; lysis in TBS (30 mM Tris-HCl pH 7.4, 150 mM NaCl) with 0.5% Nonidet P40; FLAG-IP on ANTI-FLAG M2 Affinity Gel 60-90 min at 4°C, elution with FLAG peptide; Western blot with HA and FLAG antibodies; for mutants HA/FLAG signal in eluates relative to WT, three biological replicates
Conditions: partners not purified

percent reduction of the interaction relative to CRB1 WT: ~30%
B1: Human canonical CRB2 (Crumbs homolog 2) (natural protein)
chain: not shown
notes: Crumbs homolog 2, human, cDNA NM_173689; Stood as bait (FLAG copy) and as prey (HA copy) in the pairwise co-IP matrix; each copy carries only one of the two tags; The FLAG copy was the bait of the mass spectrometry pull-downs; also called CRB2-FLAG; CRB2-HA; source: HEK293T, transfected, in lysate (co-IP); HEK293T, transfected, FLAG-IP on beads, washed and purified with 0.01% SDS (retina …)
